From patent publication US20220064276A1

How the values were obtained:
[1] = molecular target: LTBP-proTGFβ1 in the LN229 CAGA12 assay of Table 20 (endogenous or over-expressed murine LTBP1 not stated); assay: cell-based or functional assay
[2] = molecular target: human LRRC33-proTGFβ1 complex (human) (UniProt Q86YC3); assay: Octet, antibody immobilized
Sequence of human LRRC33-proTGFβ1 complex (human) (Q86YC3 19-650 limits assumed, chain 1 of 2): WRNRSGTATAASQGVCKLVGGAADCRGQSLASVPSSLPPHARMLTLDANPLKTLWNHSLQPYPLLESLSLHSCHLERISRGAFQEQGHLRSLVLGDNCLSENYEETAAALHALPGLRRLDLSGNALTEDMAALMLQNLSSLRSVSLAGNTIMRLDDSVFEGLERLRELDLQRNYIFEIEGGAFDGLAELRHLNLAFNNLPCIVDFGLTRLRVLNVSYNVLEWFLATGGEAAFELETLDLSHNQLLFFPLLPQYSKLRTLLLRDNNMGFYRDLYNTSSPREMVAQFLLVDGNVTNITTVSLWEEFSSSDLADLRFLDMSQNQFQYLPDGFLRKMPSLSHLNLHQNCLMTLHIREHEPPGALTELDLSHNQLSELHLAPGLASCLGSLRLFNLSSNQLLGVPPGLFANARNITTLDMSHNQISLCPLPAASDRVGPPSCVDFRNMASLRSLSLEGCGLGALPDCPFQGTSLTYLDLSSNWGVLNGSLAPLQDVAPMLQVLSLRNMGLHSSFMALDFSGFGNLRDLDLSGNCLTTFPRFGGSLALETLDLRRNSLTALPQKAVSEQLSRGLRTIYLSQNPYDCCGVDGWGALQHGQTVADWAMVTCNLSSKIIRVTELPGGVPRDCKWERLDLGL
Sequence of human LRRC33-proTGFβ1 complex (human) (chain, as listed by the source limits assumed, chain 2 of 2): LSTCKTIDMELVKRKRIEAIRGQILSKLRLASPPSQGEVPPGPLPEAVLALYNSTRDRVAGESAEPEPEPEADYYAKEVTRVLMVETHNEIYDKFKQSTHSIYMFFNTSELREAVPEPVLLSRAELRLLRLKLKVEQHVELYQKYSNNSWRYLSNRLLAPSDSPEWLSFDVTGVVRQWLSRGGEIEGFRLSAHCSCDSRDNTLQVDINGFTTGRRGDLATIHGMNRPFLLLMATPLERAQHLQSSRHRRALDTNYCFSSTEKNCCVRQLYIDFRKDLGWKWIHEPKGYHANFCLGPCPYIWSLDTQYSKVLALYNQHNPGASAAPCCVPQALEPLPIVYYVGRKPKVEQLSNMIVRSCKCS

IC50 (CAGA12 luciferase) [1] [nM] | Response (nm) [2] [nm] | Binder
0.186 |  | SR-AB47-HuFab (Fab, V domains shown) VH: QVQLVESGGGVVQPGRSLRLSCAASGFTFRSYVMHWVRQAPGKGLEWVAVISHEGSGKYYADSVKGRFTISRDNSKNTLYLQMNSLRAEDTAVYYCARPRIAARRGGFGSWGQGTLVTVSS VL: NFMLTQPHSVSESPGKTVTISCTRSSGNIDYNYVQWYQQRPGSSPTTVIYEDNVRPSGVPDRFSGSIDSSSNSASLTISGLKTEDEADYYCQSYDYDNQAVVFGGGTKLTVL
0.667 |  | SR-AB42-HuFab (Fab, V domains shown) VH: QVQLVESGGGVVQPGRSLRLSCAASGFTFRSYVMHWVRQAPGKGLEWVAVISHEGSLKYYADSVKGRFTISRDNSKNTLYLQMNSLRAEDTAVYYCARPRIAARRGGFGYWGQGTLVTVSS VL: NFMLTQPHSVSESPGKTVTISCTRSSGNIDNNYVQWYQQRPGSSPTTVIYEDNQRPSGVPDRFSGSIDSSSNSASLTISGLKTEDEADYYCQSYDYDTQGVVFGGGTKLTVL
0.523 |  | SR-AB48-HuFab (Fab, V domains shown) VH: QVQLVESGGGVVQPGRSLRLSCAASGFTFRSYVMHWVRQAPGKGLEWVAVISHEGSGKYYADSVKGRFTISRDNSKNTLYLQMNSLRAEDTAVYYCARPRIAARRGGFGSWGQGTLVTVSS VL: NFMLTQPHSVSESPGKTVTISCTRSSGNIDYNYVQWYQQRPGSSPTTVIYEDNVRPSGVPDRFSGSIDSSSNSASLTISGLKTEDEADYYCQSYDYDTQGVVFGGGTKLTVL
5.87 |  | SR-AB54-HuFab (Fab, V domains shown) VH: QVQLVESGGGVVQPGRSLRLSCAASGFTFRSYVMHWVRQAPGKGLEWVAVISHEGSGKYYADSVKGRFTISRDNSKNTLYLQMNSLRAEDTAVYYCALPRIAARRGGFGSWGQGTLVTVSS VL: NFMLTQPHSVSESPGKTVTISCTRSSGNIDYNYVQWYQQRPGSSPTTVIYEDNVRPSGVPDRFSGSIDSSSNSASLTISGLKTEDEADYYCQSYDSDNQRVVFGGGTKLTVL
0.459 |  | SR-AB52-HuFab (Fab, V domains shown) VH: QVQLVESGGGVVQPGRSLRLSCAASGFTFRSYVMHWVRQAPGKGLEWVAVISHEGSGKYYADSVKGRFTISRDNSKNTLYLQMNSLRAEDTAVYYCARPRIAARRGGFGTWGQGTLVTVSS VL: NFMLTQPHSVSESPGKTVTISCTRSSGNIDYNYVQWYQQRPGSSPTTVIYEDNVRPSGVPDRFSGSIDSSSNSASLTISGLKTEDEADYYCQSYDYDTQGVVFGGGTKLTVL
1.08 |  | SR-AB43-HuFab (Fab, V domains shown) VH: QVQLVESGGGVVQPGRSLRLSCAASGFTFRSYVMHWVRQAPGKGLEWVAVISHEGSLKYYADSVKGRFTISRDNSKNTLYLQMNSLRAEDTAVYYCARPRIAARRGGFGYWGQGTLVTVSS VL: NFMLTQPHSVSESPGKTVTISCTRSSGNIDYNYVQWYQQRPGSSPTTVIYEDNVRPSGVPDRFSGSIDSSSNSASLTISGLKTEDEADYYCQSYDSDNQRVVFGGGTKLTVL
0.742 |  | SR-AB60-HuFab (Fab, V domains shown) VH: QVQLVESGGGVVQPGRSLRLSCAASGFTFRSYVMHWVRQAPGKGLEWVAVISHEGSGKYYADSVKGRFTISRDNSKNTLYLQMNSLRAEDTAVYYCALPRIAARRGGFGTWGQGTLVTVSS VL: NFMLTQPHSVSESPGKTVTISCTRSSGNIDYNYVQWYQQRPGSSPTTVIYEDNVRPSGVPDRFSGSIDSSSNSASLTISGLKTEDEADYYCQSYDYDTQGVVFGGGTKLTVL
1.18 |  | SR-AB53-HuFab (Fab, V domains shown) VH: QVQLVESGGGVVQPGRSLRLSCAASGFTFRSYVMHWVRQAPGKGLEWVAVISHEGSGKYYADSVKGRFTISRDNSKNTLYLQMNSLRAEDTAVYYCARPRIAARRGGFGTWGQGTLVTVSS VL: NFMLTQPHSVSESPGKTVTISCTRSSGNIDYNYVQWYQQRPGSSPTTVIYEDNVRPSGVPDRFSGSIDSSSNSASLTISGLKTEDEADYYCQGYDWDTQGVVFGGGTKLTVL
0.195 |  | SR-AB59-HuFab (Fab, V domains shown) VH: QVQLVESGGGVVQPGRSLRLSCAASGFTFRSYVMHWVRQAPGKGLEWVAVISHEGSGKYYADSVKGRFTISRDNSKNTLYLQMNSLRAEDTAVYYCALPRIAARRGGFGTWGQGTLVTVSS VL: NFMLTQPHSVSESPGKTVTISCTRSSGNIDYNYVQWYQQRPGSSPTTVIYEDNVRPSGVPDRFSGSIDSSSNSASLTISGLKTEDEADYYCQSYDYDNQAVVFGGGTKLTVL
0.536 |  | SR-AB55-HuFab (Fab, V domains shown) VH: QVQLVESGGGVVQPGRSLRLSCAASGFTFRSYVMHWVRQAPGKGLEWVAVISHEGSGKYYADSVKGRFTISRDNSKNTLYLQMNSLRAEDTAVYYCALPRIAARRGGFGSWGQGTLVTVSS VL: NFMLTQPHSVSESPGKTVTISCTRSSGNIDYNYVQWYQQRPGSSPTTVIYEDNVRPSGVPDRFSGSIDSSSNSASLTISGLKTEDEADYYCQSYDYDNQAVVFGGGTKLTVL
0.535 |  | SR-AB51-HuFab (Fab, V domains shown) VH: QVQLVESGGGVVQPGRSLRLSCAASGFTFRSYVMHWVRQAPGKGLEWVAVISHEGSGKYYADSVKGRFTISRDNSKNTLYLQMNSLRAEDTAVYYCARPRIAARRGGFGTWGQGTLVTVSS VL: NFMLTQPHSVSESPGKTVTISCTRSSGNIDYNYVQWYQQRPGSSPTTVIYEDNVRPSGVPDRFSGSIDSSSNSASLTISGLKTEDEADYYCQSYDYDNQAVVFGGGTKLTVL
4.86 |  | SR-AB58-HuFab (Fab, V domains shown) VH: QVQLVESGGGVVQPGRSLRLSCAASGFTFRSYVMHWVRQAPGKGLEWVAVISHEGSGKYYADSVKGRFTISRDNSKNTLYLQMNSLRAEDTAVYYCALPRIAARRGGFGTWGQGTLVTVSS VL: NFMLTQPHSVSESPGKTVTISCTRSSGNIDYNYVQWYQQRPGSSPTTVIYEDNVRPSGVPDRFSGSIDSSSNSASLTISGLKTEDEADYYCQSYDSDNQRVVFGGGTKLTVL
 | 0.133 | SR-AB22 (antibody, IgG1, V domains shown) VH: QVQLVESGGGVVQPGRSLRLSCAASGFTFRSYVMHWVRQAPGKGLEWVAVISHEGSLKYYADSVKGRFTISRDNSKNTLYLQMNSLRAEDTAVYYCAVPRIAARRGGFGYWGQGTLVTVSS VL: NFMLTQPHSVSESPGKTVTISCTRSSGNIDNNYVQWYQQRPGSSPTTVIYEDNQRPSGVPDRFSGSIDSSSNSASLTISGLKTEDEADYYCQSYDSDNQGVVFGGGTKLTVL
0.439 |  | SR-AB56-HuFab (Fab, V domains shown) VH: QVQLVESGGGVVQPGRSLRLSCAASGFTFRSYVMHWVRQAPGKGLEWVAVISHEGSGKYYADSVKGRFTISRDNSKNTLYLQMNSLRAEDTAVYYCALPRIAARRGGFGSWGQGTLVTVSS VL: NFMLTQPHSVSESPGKTVTISCTRSSGNIDYNYVQWYQQRPGSSPTTVIYEDNVRPSGVPDRFSGSIDSSSNSASLTISGLKTEDEADYYCQSYDYDTQGVVFGGGTKLTVL
8.53 |  | SR-AB23 Fab (Fab, V domains shown) VH: QVQLVESGGGVVQPGRSLRLSCAASGFTFRSYVMHWVRQAPGKGLEWVAVISHEGSLKYYADSVKGRFTISRDNSKNTLYLQMNSLRAEDTAVYYCARPRIAARRGGFGYWGQGTLVTVSS VL: NFMLTQPHSVSESPGKTVTISCTRSSGNIDNNYVQWYQQRPGSSPTTVIYEDNQRPSGVPDRFSGSIDSSSNSASLTISGLKTEDEADYYCQSYDSDNQGVVFGGGTKLTVL
0.47 |  | SR-AB61-HuFab (Fab, V domains shown) VH: QVQLVESGGGVVQPGRSLRLSCAASGFTFRSYVMHWVRQAPGKGLEWVAVISHEGSGKYYADSVKGRFTISRDNSKNTLYLQMNSLRAEDTAVYYCALPRIAARRGGFGTWGQGTLVTVSS VL: NFMLTQPHSVSESPGKTVTISCTRSSGNIDYNYVQWYQQRPGSSPTTVIYEDNVRPSGVPDRFSGSIDSSSNSASLTISGLKTEDEADYYCQGYDWDTQGVVFGGGTKLTVL
0.495 |  | SR-AB46-HuFab (Fab, V domains shown) VH: QVQLVESGGGVVQPGRSLRLSCAASGFTFRSYVMHWVRQAPGKGLEWVAVISHEGSGKYYADSVKGRFTISRDNSKNTLYLQMNSLRAEDTAVYYCARPRIAARRGGFGSWGQGTLVTVSS VL: NFMLTQPHSVSESPGKTVTISCTRSSGNIDYNYVQWYQQRPGSSPTTVIYEDNVRPSGVPDRFSGSIDSSSNSASLTISGLKTEDEADYYCQSYDSDNQRVVFGGGTKLTVL
11 |  | SR-AB50-HuFab (Fab, V domains shown) VH: QVQLVESGGGVVQPGRSLRLSCAASGFTFRSYVMHWVRQAPGKGLEWVAVISHEGSGKYYADSVKGRFTISRDNSKNTLYLQMNSLRAEDTAVYYCARPRIAARRGGFGTWGQGTLVTVSS VL: NFMLTQPHSVSESPGKTVTISCTRSSGNIDYNYVQWYQQRPGSSPTTVIYEDNVRPSGVPDRFSGSIDSSSNSASLTISGLKTEDEADYYCQSYDSDNQRVVFGGGTKLTVL
0.775 |  | SR-AB57-HuFab (Fab, V domains shown) VH: QVQLVESGGGVVQPGRSLRLSCAASGFTFRSYVMHWVRQAPGKGLEWVAVISHEGSGKYYADSVKGRFTISRDNSKNTLYLQMNSLRAEDTAVYYCALPRIAARRGGFGSWGQGTLVTVSS VL: NFMLTQPHSVSESPGKTVTISCTRSSGNIDYNYVQWYQQRPGSSPTTVIYEDNVRPSGVPDRFSGSIDSSSNSASLTISGLKTEDEADYYCQGYDWDTQGVVFGGGTKLTVL
1.02 |  | SR-AB49-HuFab (Fab, V domains shown) VH: QVQLVESGGGVVQPGRSLRLSCAASGFTFRSYVMHWVRQAPGKGLEWVAVISHEGSGKYYADSVKGRFTISRDNSKNTLYLQMNSLRAEDTAVYYCARPRIAARRGGFGSWGQGTLVTVSS VL: NFMLTQPHSVSESPGKTVTISCTRSSGNIDYNYVQWYQQRPGSSPTTVIYEDNVRPSGVPDRFSGSIDSSSNSASLTISGLKTEDEADYYCQGYDWDTQGVVFGGGTKLTVL
0.486 |  | SR-AB41 Fab (Fab, V domains shown) VH: QVQLVESGGGVVQPGRSLRLSCAASGFTFRSYVMHWVRQAPGKGLEWVAVISHEGSLKYYADSVKGRFTISRDNSKNTLYLQMNSLRAEDTAVYYCARPRIAARRGGFGYWGQGTLVTVSS VL: NFMLTQPHSVSESPGKTVTISCTRSSGNIDNNYVQWYQQRPGSSPTTVIYEDNQRPSGVPDRFSGSIDSSSNSASLTISGLKTEDEADYYCQSYDYDNQAVVFGGGTKLTVL
